The text below walks through data of US20200317768A1 (published 2020).

Assay [1] has as its target T1, human FcγRIIIaV extracellular domain, C-terminal His-tag (human, UniProt P08637 17-208).
T1 construct: also called FcgRIIIaV; not shown: His-tag added to the C-terminus
Kind of assay: SPR; KD of SG1 divided by KD of variant.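 Further: relative to parent M103205H795-SG1 carrying the SG1 human heavy chain constant region.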 As for the experimental part:
(§1) The kinetic analysis of interactions between these antibodies and FcγR was carried out using BIACORE® T200 or BIACORE® 4000 (GE Healthcare). HBS-EP+ (GE Healthcare) was used as the running buffer, and the measurement temperature was set to 25° C. A chip produced by immobilizing Protein A. Protein A/G or mouse anti-human IgG kappa light chain (BD Biosciences) onto a Series S Sensor Chip CM4 or CM5 (GE Healthcare) by the amine-coupling method was used. […] After the measurement, the antibody captured on the chip was washed off by allowing reaction with 10 mM glycine-HCl, pH1.5 and 25 mM NaOH so that the chip was regenerated and used repeatedly. The sensorgrams obtained as measurement results were analyzed by the 1:1 Langmuir binding model using the BIACORE® Evaluation Software to calculate the binding rate constant ka (L/mol/s) and dissociation rate constant kd (l/s), and the dissociation constant KD (mol/L) was calculated from these values. […] Regarding such interactions, KD values were calculated using the following 1:1 binding model described in BIACORE® T100 Software Handbook BR1006-48 Edition AE.
(§2) Human FcγRIIb-enhanced Fc variants with anti-myostatin variable region were constructed and their affinity for human FcγRs was evaluated. […] In addition, substitutions (Q311R/D413K or […]) were also introduced. The variants were expressed using M103202L1045-SK1 as light chain and their affinity to human FcγRs was analyzed according to the method shown in Example 34.
In general terms: SPR reads the build-up and loss of mass on a sensor chip optically.

The target in assay [2] is T2, human FcγRIIaH extracellular domain, C-terminal His-tag (human, UniProt P12318 34-217).
T2 construct: also called human FcγRIIa (type H); FcgRIIaH; not shown: His-tag added to the C-terminus
T2 sequence: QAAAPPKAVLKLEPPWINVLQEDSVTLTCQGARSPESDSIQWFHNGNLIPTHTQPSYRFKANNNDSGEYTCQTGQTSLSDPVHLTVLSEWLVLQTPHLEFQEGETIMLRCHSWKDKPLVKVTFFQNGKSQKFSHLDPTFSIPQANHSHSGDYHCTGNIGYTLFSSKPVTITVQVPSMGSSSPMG
Kind of assay: SPR; KD of SG1 divided by KD of variant.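 Further: relative to parent M103205H795-SG1 carrying the SG1 human heavy chain constant region.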 As for the experimental part: as §1, §2

Assay [3] addresses T3, human FcγRIIaR extracellular domain, C-terminal His-tag (human, UniProt P12318 34-217).
T3 construct: also called human FcγRIIa (type R); FcgRIIaR; not shown: His-tag added to the C-terminus
T3 chain: T2 sequence with H134R
Kind of assay: SPR; KD of SG1 divided by KD of variant.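 Further: relative to parent M103205H795-SG1 carrying the SG1 human heavy chain constant region.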 As for the experimental part: as §1, §2

The target of assay [4] is T4, human FcγRIIb extracellular domain, C-terminal His-tag (human, UniProt P31994 43-217).
T4 construct: also called FcgRIIb; not shown: His-tag added to the C-terminus
T4 sequence: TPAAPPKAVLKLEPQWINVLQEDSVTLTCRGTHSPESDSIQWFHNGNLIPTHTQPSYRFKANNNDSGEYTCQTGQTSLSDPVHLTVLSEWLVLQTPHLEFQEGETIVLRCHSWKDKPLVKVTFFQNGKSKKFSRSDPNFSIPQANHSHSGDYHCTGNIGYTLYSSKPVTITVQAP
Kind of assay: SPR; KD of SG1 divided by KD of variant.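 Further: relative to parent M103205H795-SG1 carrying the SG1 human heavy chain constant region.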 How it is done: as §1, §2

Assay [5] concerns the target T1, human FcγRIIIaV extracellular domain, …. Kind of assay: SPR (BIACORE), antibody captured, soluble FcgR as analyte, 25C. As for the experimental part:
as §1, §2

Assay [6] addresses T2, human FcγRIIaH extracellular domain, …. Described as above. How it is done: as §1, §2
For assay [7], the target named is T3, human FcγRIIaR extracellular domain, …. The assay is described as above. How it is done: as §1, §2
Assay [8] has as its target T4, human FcγRIIb extracellular domain, …. The assay is described as above. How it is done:
as §1, §2

Positions count from the first letter of the chain named. Names and notes keep the numbering of the source.

T1 sequence (P08637 17-208 F176V): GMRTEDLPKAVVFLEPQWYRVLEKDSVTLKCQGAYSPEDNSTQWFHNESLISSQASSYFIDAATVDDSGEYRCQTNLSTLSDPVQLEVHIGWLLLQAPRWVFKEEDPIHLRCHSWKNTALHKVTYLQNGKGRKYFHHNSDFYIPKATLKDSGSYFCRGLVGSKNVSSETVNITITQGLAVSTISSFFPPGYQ

B1: MS103240H795-TT11/M103202L1045-SK1 (antibody, human IgG1, kappa)
heavy: QVQLVESGGGLVQPGGSLRLSCAVSGIDLSHDDISWVRQAPGKGLEWVSIISYAGSTYYASWAKGRLTISKDTSKNQVVLTMTNMDPVDTATYYCARGVPAYSHGGDLWGQGTLVTVSSASTKGPSVFPLAPSSKSTSGGTAALGCLVKDYFPEPVTVSWNSGALTSGVHTFPAVLQSSGLYSLSSVVTVPSSSLGTQTYICNVNHKPSNTKVDKKVEPKSCDKTHTCPPCPAPEYLGGDSVFLFPPKPKDVLMISRTPEVTCVVVDVSHEDPEVKFNWYVDGVEVHNAKTKPREEQYNSTYRVVSVLPVLHQDWLNGKEYKCKVSNKALPKPIEKTISKAKGQPREPQVYTLPPSREEMTKNQVSLTCLVKGFYPSDIAVEWESNGQPENNYKTTPPVLDSDGSFFLYSKLTVDKSRWQQGNVFSCSVMHEALHNHYTQKSLSLSP
light: DIVMTQSPATLSLSPGERATLSCTTSQSVYHENWLSWFQQKPGQPPKLLIYWASTLAYGVPSRFSGSGSGTDFTLTISSLQPEDAATYYCAGGYGGGRYAFGQGTKVEIKRTVAAPSVFIFPPSDEQLKSGTASVVCLLNNFYPREAKVQWKVDNALQSGNSQESVTEQDSKDSTYSLSSTLTLSKADYEKHKVYACEVTHQGLSSPVTKSFNRGEC
notes: CH = SG1 with L234Y/P238D/T250V/T307P/A330K (EU numbering)
In the case of B1, the “KD fold (SG1 = 1)” value came out at 0.005 fold in assay [1], 0.031 fold in assay [2], 0.11 fold in assay [3] and 11.2 fold in assay [4]. In addition, the Kd – broadly, the free concentration of one partner at which half of the binding sites on the other are occupied at equilibrium, for simple one-to-one binding – in assay [5] is 170 µM; in assay [6] it was 24 µM; in assay [7], 10 µM; in assay [8], 0.52 µM.

B2: MS103240H795-TT13/M103202L1045-SK1 (antibody, human IgG1, kappa)
heavy: B1 heavy with Y236L, V266I, S269A
light: B1 light
notes: CH = SG1 with P238D/T250V/V264I/S267A/T307P/A330K (EU numbering)
As for B2, the “KD fold (SG1 = 1)” value in assay [1] is 0.006 fold; in assay [2] it was 0.017 fold; in assay [3], 0.11 fold; in assay [4] it was 18.1 fold. Moreover, the dissociation constant (Kd) turned out to be 140 µM in assay [5], 45 µM in assay [6], 9.8 µM in assay [7] and 0.32 µM in assay [8].

B3: MS103240H795-TT26/M103202L1045-SK1 (antibody, human IgG1, kappa)
heavy: B1 heavy with Q313R, P345R
light: B1 light
notes: CH = SG1 with L234Y/P238D/T250V/T307P/Q311R/A330K/P343R (EU numbering)
B3: the “KD fold (SG1 = 1)” value in assay [1] was 0.004 fold; in assay [2], 0.011 fold; in assay [3] it was 0.05 fold; in assay [4], 5.3 fold. The Kd in assay [5] was determined as 200 µM; in assay [6] it was 69 µM; in assay [7], 21 µM; in assay [8] it was 1.1 µM.

B4: MS103240H795-TT24/M103202L1045-SK1 (antibody, human IgG1, kappa)
heavy: B1 heavy with Y236L, S269A, Q313R, P345R
light: B1 light
notes: CH = SG1 with P238D/T250V/S267A/T307P/Q311R/A330K/P343R (EU numbering)
Turning to B4, the “KD fold (SG1 = 1)” value came to 0.003 fold in assay [1], 0.015 fold in assay [2], 0.08 fold in assay [3] and 4.8 fold in assay [4]. Moreover, the Kd in assay [5] worked out at 260 µM; in assay [6], 49 µM; in assay [7], 13 µM; in assay [8] it was 1.2 µM.

B5: MS103240H795-TT20/M103202L1045-SK1 (antibody, human IgG1, kappa)
heavy: B1 heavy with Y236L, Q313R, P345R
light: B1 light
notes: CH = SG1 with P238D/T250V/T307P/Q311R/A330K/P343R (EU numbering)
Regarding B5, the “KD fold (SG1 = 1)” value is 0.01 fold in assay [1], 0.008 fold in assay [2], 0.04 fold in assay [3] and 4.1 fold in assay [4]. The dissociation constant (Kd) in assay [5] worked out at 84 µM; in assay [6], 91 µM; in assay [7], 28 µM; in assay [8] it was 1.4 µM.

B6: MS103240H795-TT25/M103202L1045-SK1 (antibody, human IgG1, kappa)
heavy: B1 heavy with Y236L, S269A, Q313R, D415K
light: B1 light
notes: CH = SG1 with P238D/T250V/S267A/T307P/Q311R/A330K/D413K (EU numbering)
B6: the “KD fold (SG1 = 1)” value in assay [1] stood at 0.006 fold; in assay [2], 0.034 fold; in assay [3], 0.08 fold; in assay [4], 5.8 fold. Also, the Kd was found to be 140 µM in assay [5], 22 µM in assay [6], 13 µM in assay [7] and 1 µM in assay [8].

B7: MS103240H795-TT14/M103202L1045-SK1 (antibody, human IgG1, kappa)
heavy: B1 heavy with V266I
light: B1 light
notes: CH = SG1 with L234Y/P238D/T250V/V264I/T307P/A330K (EU numbering)
For the molecule B7, the “KD fold (SG1 = 1)” value in assay [1] was found to be 0.005 fold; in assay [2] it was 0.042 fold; in assay [3], 0.14 fold; in assay [4], 30.5 fold. Also, the Kd in assay [5] amounted to 150 µM; in assay [6], 18 µM; in assay [7] it was 7.6 µM; in assay [8], 0.19 µM.

B8: MS103240H795-TT23/M103202L1045-SK1 (antibody, human IgG1, kappa)
heavy: B1 heavy with Y236L, V266I, Q313R, D415K
light: B1 light
notes: CH = SG1 with P238D/T250V/V264I/T307P/Q311R/A330K/D413K (EU numbering)
Take B8: the “KD fold (SG1 = 1)” value in assay [1] worked out at 0.002 fold; in assay [2], 0.007 fold; in assay [3] it was 0.02 fold; in assay [4], 10.5 fold. In addition, the Kd in assay [5] amounted to 450 µM; in assay [6], 100 µM; in assay [7] it was 48 µM; in assay [8], 0.55 µM.

B9: MS103240H795-TT21/M103202L1045-SK1 (antibody, human IgG1, kappa)
heavy: B1 heavy with Y236L, Q313R, D415K
light: B1 light
notes: CH = SG1 with P238D/T250V/T307P/Q311R/A330K/D413K (EU numbering)
Take B9: the “KD fold (SG1 = 1)” value in assay [1] was determined as 0.01 fold; in assay [2] it was 0.013 fold; in assay [3], 0.06 fold; in assay [4], 4.5 fold. Besides, the Kd in assay [5] worked out at 85 µM; in assay [6], 56 µM; in assay [7], 20 µM; in assay [8], 1.3 µM.

B10: MS103240H795-TT15/M103202L1045-SK1 (antibody, human IgG1, kappa)
heavy: B1 heavy with V266I, S269A
light: B1 light
notes: CH = SG1 with L234Y/P238D/T250V/V264I/S267A/T307P/A330K (EU numbering)
For the molecule B10, the “KD fold (SG1 = 1)” value was 0.006 fold in assay [1], 0.026 fold in assay [2], 0.18 fold in assay [3] and 23.2 fold in assay [4]. For the same molecule, the Kd is 130 µM in assay [5], 29 µM in assay [6], 6.1 µM in assay [7] and 0.25 µM in assay [8].

B11: MS103240H795-TT22/M103202L1045-SK1 (antibody, human IgG1, kappa)
heavy: B1 heavy with Y236L, V266I, Q313R, P345R
light: B1 light
notes: CH = SG1 with P238D/T250V/V264I/T307P/Q311R/A330K/P343R (EU numbering)
For the molecule B11, the “KD fold (SG1 = 1)” value in assay [1] was found to be 0.011 fold; in assay [2], 0.013 fold; in assay [3] it was 0.05 fold; in assay [4], 9.8 fold. Further, the Kd in assay [5] is 72 µM; in assay [6], 60 µM; in assay [7] it was 21 µM; in assay [8], 0.59 µM.

B12: MS103240H795-TT12/M103202L1045-SK1 (antibody, human IgG1, kappa)
heavy: B1 heavy with S269A
light: B1 light
notes: CH = SG1 with L234Y/P238D/T250V/S267A/T307P/A330K (EU numbering)
In the case of B12, the “KD fold (SG1 = 1)” value in assay [1] is 0.006 fold; in assay [2], 0.038 fold; in assay [3], 0.22 fold; in assay [4], 11.8 fold. In addition, the equilibrium dissociation constant (Kd) is 130 µM in assay [5], 20 µM in assay [6], 5 µM in assay [7] and 0.49 µM in assay [8].
